Fewer inactive variants are shown than the library holds.
B1: TPR 5TU (parent)
chain: GGAUCUUCUCGAUCUAACAAAAAAGACAAAUCUGCCACAAAGCUUGAGAGCAUCUUCGGAUGCAGAGGCGGCAGCCUUCGGUGGCGCGAUAGCGCCAACGUUCUCAACUAUGACACGCAAAACGCGUGCUCCGUUGAAUGGAGUUUAUCAUG

Variants of: B1
Experiment: polymerase ribozyme fitness, log enrichment relative to wild type (log ratio); higher = more active; in vitro selection for triplet polymerase activity
Summary of the method: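 Fitness compares each genotype's enrichment to that of the wild type on a logarithmic scale, averaging replicates with inverse-variance weights. The logarithm is base 2. Enrichment came from Illumina sequencing of input and output libraries after one triplicate round of in vitro selection, which included frozen incubation at −7 °C, of PCR-built, transcribed mutant libraries of each subunit of a heterodimeric triplet polymerase ribozyme. Only genotypes with ≥10 input reads and ≥1 read per output were kept.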

Variant | polymerase ribozyme fitness (log ratio)
G83U A121C A142U | -1.46
G84C C85G | -4.03
G84U G141A | -1.4
G84A G143U | -2.51
G83C G92A | ≤ -4.2
G84U U90A C108A | ≤ -4.2
G83C U146A | -0.565
G84A U102A | -1.01
G84A A97U | -1.12
G84A A97G | -2.34
C85A G92C G141A G143U | ≤ -4.2
G83U C96A | -0.528
G83C G126A | 0.0538
G83C G126U | 0.246
C85A C95G A115G | -3.81
C85A C96U A137U U144A | ≤ -4.2
G83A C87U C123G A142G | -2.09
G84A A115U | -2.62
G84A A115C | -0.594
G83C C105G G126A | -2.8
G84U U101G U134G | -3.87
G83C C131G | -3.32
G84C G92C A106U C149U | ≤ -4.2
G83U C103G A107U | ≤ -4.2

Variant | polymerase ribozyme fitness (log ratio)
G84U C116U G143C | -3.37
G84A A91U G126U G143U | ≤ -4.2
G84A G88U | -3.57
G84A G88A | ≤ -4.2
G83A A97C U104A G136A | -1.39
G84U A106U | -2.69
G84U A106C | -2.1
C85A C95A C125U | -1.39
G84U C99G U148A | ≤ -4.2
G83A C105A | -3.15
G84A U144G | 0.394
G84A U144A | -1.65
G83U C87U A89C C123A C125U | -1.33
G83A C99U G143A A147U | -3.6
U82G C95G G126C | -1.07
G84A U148A | -2.74
G84A U148C | -2.65
G84A C105U | 0.191
G83U A115C | -0.337
G84A A106U G141U | -0.79
G84A G100C | ≤ -4.2
G84U A89G | -3.82
G83U C132U | -1.33
U82G G84U C99U G128C | ≤ -4.2

Variant | polymerase ribozyme fitness (log ratio)
G83A A142G U148A | -4.11
G84A U146A | -0.719
G83A A91C A142G | ≤ -4.2
G84A A142C | -1.65
G84A A142G | -1.82
G83A C85U A115U C116U | -2.68
G83C G117U | -1.62
G83C A89U G124U | -1.35
G84U A98G | -2.89
C85A C123U | -1.2
G84A U127C U139G A142C | -3.93
G84A C131G | -3.02
G84A C131A | -2.79
G83U G100U C103A C131U | ≤ -4.2
G83A U104G A122U U134G | -3.23
G84A G124A | -0.287
G84A G124U | -0.556
G84U C87A C116U | ≤ -4.2
G84U A138U | ≤ -4.2
G83A C93U | -1.36
G84U G88A A120C | ≤ -4.2
G83C U144C | -1.58
G84U U144A | -3.22
G83C C132A | -2.69

Variant | polymerase ribozyme fitness (log ratio)
G84U G117A | -2
G84A A98C C105G U148C | -3.35
G83C G133A | -3.62
U82G G94U | -0.833
G84U C93A U101C A107G G133U G141C | ≤ -4.2
G83A A97U A98U A138U | -4.07
C85A A120U | -1.7
G84A A89G G100C A115G C125U | ≤ -4.2
G84A A150G | -0.63
G84A A150C | -3
G83U C87U | -1.25
G84U A120G | -2.16
C85A A137G | -2.96
C85A C108U U135A U144C | -4.17
G84A C93U C108G A137U | ≤ -4.2
G83A A91G C93U C149A | ≤ -4.2
G83C C116U A120C U135G | -3.87
G83U G88U A150U | -3.49
G84A C114G G124A U134C | -3.53
G84U A121C | -1.74
G84U U101G G126C | -1.67
C85A A122G | -2.54
C85A C96A | -2.22
G83A A98U | -0.299

Variant | polymerase ribozyme fitness (log ratio)
U82G C125G | -1.76
G84A U145A | 0.189
G84A U145C | -0.153
G83U C149U | -1.76
G83U A97G A142U | -3.29
G84A G133C G141C | -2.83
G83U C93U C96G U135A | -2.89
G83C C93U C96A | -1.71
G83U G126A | -0.669
G84A G88U C96G A113U U144G | ≤ -4.2
C85A C96U C132A | -3.67
G83A A119C A137G G143A | -2.54
G84U G117U C123U G141A U146A | ≤ -4.2
G83A G126C | 0.173
G84A A89G | -1.6
C85A A98U C108A U134G | ≤ -4.2
C85A A150G | -2.41
C85A A150C | ≤ -4.2
G83A A119C | -2.44
G84U A142G | -3.27
G83C A121U | 0.406
G83C G84U C87U U102G A107U | ≤ -4.2
G84U C99G C103U | ≤ -4.2
G84U C93G | ≤ -4.2

Variant | polymerase ribozyme fitness (log ratio)
G84A C118U G141A | 0.213
C85A C118A | -0.973
G84U C105A U139C | -4.17
U82G C87U U146C | -0.959
C85A C116A | 0.744
C85A A147G | -0.743
G84U U127A U134G | ≤ -4.2
G83U A113U | -2.14
G83U G143U | -1.68
G83C C96U A147U G152A | -1.98
C85A C129G | -2.95
G84A G133C G143U | -3.92
C85A C149U | -1.59
G84A C85U G143A | -1.63
G84U A115U | -3.4
G83U A107U G141U | ≤ -4.2
G83A C85U | -1.94
G83U C93U | -2.69
G83A C95U A106C A107G | -3.5
G84U C96A C103U A113U | ≤ -4.2
U82G C95A | -1.03
G84U C131G | -3.96
G83U G94U C95A | -1.62
G84U G133C | -3.53

Variant | polymerase ribozyme fitness (log ratio)
G83C U90C A107C C116A U127C A150C | ≤ -4.2
G83C C118G | -0.968
G83C C118U | -1.34
G84U A97U | -1.54
C85A C105U | -1.89
U82G C93A | -2.46
G84U U102G | -4.16
G84A C132G | -3.59
G84A C103G C149U | -3.35
G83A U146G | -1.33
C85A A107U A147C U151C | ≤ -4.2
G83U G117U | -0.498
G83U C87G C99U | ≤ -4.2
G84C C85A G92U C96A A97C C105U | -2.61
U82G G86U C123U | -1.47
G84A C93U | -1.83
G83C C95G U148G | ≤ -4.2
G84A C123U | -0.156
G84A C123G | -0.679
G83C G84U A110C | ≤ -4.2
C85A C93U A119C G126U U127A | ≤ -4.2
G84U C129U | -1.42
G84C C125G | -1.94

Source: the RNAGym collection of RNA variant scans (doi:10.1073/pnas.2313332121)
